Reference: PMC10042815

Target: thrombin (Sigma, Germany)

recombinant hirudin from Hirudo nipponia (candidate hirudin gene c16237_g1) (natural protein)
antithrombin activity by thrombin titration (bovine fibrinogen, fibrin clot within 1 min as endpoint, 37 °C, 50 mM Tris-HCl pH 7.4): 14000 ATU/mL

commercially available hirudin (MedChem Express) (natural protein)
antithrombin activity by thrombin titration (bovine fibrinogen, fibrin clot within 1 min as endpoint, 37 °C, 50 mM Tris-HCl pH 7.4): 12000 ATU/mL
